Reference: IntAct's records for PubMed 14596906

B1: Formin-binding protein 1 (Homo sapiens), Q96RU3 (parent)
chain: MSWGTELWDQFDNLEKHTQWGIDILEKYIKFVKERTEIELSYAKQLRNLSKKYQPKKNSKEEEEYKYTSCKAFISNLNEMNDYAGQHEVISENMASQIIVDLARYVQELKQERKSNFHDGRKAQQHIETCWKQLESSKRRFERDCKEADRAQQYFEKMDADINVTKADVEKARQQAQIRHQMAEDSKADYSSILQKFNHEQHEYYHTHIPNIFQKIQEMEERRIVRMGESMKTYAEVDRQVIPIIGKCLDGIVKAAESIDQKNDSQLVIEAYKSGFEPPGDIEFEDYTQPMKRTVSDNSLSNSRGEGKPDLKFGGKSKGKLWPFIKKNKLMSLLTSPHQPPPPPPASASPSAVPNGPQSPKQQKEPLSHRFNEFMTSKPKIHCFRSLKRGLSLKLGATPEDFSNLPPEQRRKKLQQKVDELNKEIQKEMDQRDAITKMKDVYLKNPQMGDPASLDHKLAEVSQNIEKLRVETQKFEAWLAEVEGRLPARSEQARRQSGLYDSQNPPTVNNCAQDRESPDGSYTEEQSQESEMKVLATDFDDEFDDEEPLPAIGTCKALYTFEGQNEGTISVVEGETLYVIEEDKGDGWTRIRRNEDEEGYVPTSYVEVCLDKNAKDS

Variants of: B1
Conditions: with tnks1_human TNKS

Row | effect of a mutation on the interaction | Variant
1 | decreasing interaction | R515A
2 | disrupting interaction | R515A;D519A
